Test results as given in US20170008955A1 (CNJ, published 2017).

Assays:
cSNK:BSA conjugate [1] = target: T1, cSNK:BSA conjugate (bovine, head-to-tail cyclized; conjugated to BSA carrier); assay: BLI 2:1 fit, column KD; 25 nM row
T1 construct: also called BSA-cSNK
Description: (§1) Biolayer interferometry (Octet […], ForteBio) was used to qualitatively/quantitatively assess the interactions between humanized versions of 5E3 and cSNK:BSA conjugate. […] MAbs were loaded onto sensors and then washed in PBST. Each sensor was associated with one of several cSNK:BSA standards (100 nM to 0 nM) and then washed in PBST. Data was processed statistically using ForteBio Data Analysis software to determine the strength of antigen-antibody binding (KD). For each mAb analyzed, a 2:1 model provided the “best fit”.

cSNK:BSA conjugate [2] = target: T1, cSNK:BSA conjugate; assay: BLI 2:1 fit, column KD; 50 nM row
Description: as §1

cSNK:BSA conjugate [3] = target: T1, cSNK:BSA conjugate; assay: BLI 2:1 fit, column KD2; 25 nM row
Description: as §1

cSNK:BSA conjugate [4] = target: T1, cSNK:BSA conjugate; assay: BLI 2:1 fit, column KD2; 50 nM row
Description: as §1

cSNK:BSA conjugate [5] = target: T1, cSNK:BSA conjugate; assay: BLI 2:1 fit, column kon; 25 nM row
Description: as §1

cSNK:BSA conjugate [6] = target: T1, cSNK:BSA conjugate; assay: BLI 2:1 fit, column kon; 50 nM row
Description: as §1

cSNK:BSA conjugate [7] = target: T1, cSNK:BSA conjugate; assay: BLI 2:1 fit, column KD2; 100 nM row
Description: as §1

cSNK:BSA conjugate [8] = target: T1, cSNK:BSA conjugate; assay: BLI 2:1 fit, column KD; 12.5 nM row
Description: as §1

cSNK:BSA conjugate [9] = target: T1, cSNK:BSA conjugate; assay: BLI 2:1 fit, column KD; 6.25 nM row
Description: as §1

cSNK:BSA conjugate [10] = target: T1, cSNK:BSA conjugate; assay: BLI 2:1 fit, column kdis; 25 nM row
Description: as §1

cSNK:BSA conjugate [11] = target: T1, cSNK:BSA conjugate; assay: BLI 2:1 fit, column kdis; 50 nM row
Description: as §1

cSNK:BSA conjugate [12] = target: T1, cSNK:BSA conjugate; assay: BLI 2:1 fit, column kon2; 25 nM row
Description: as §1

cSNK:BSA conjugate [13] = target: T1, cSNK:BSA conjugate; assay: BLI 2:1 fit, column kon2; 50 nM row
Description: as §1

cSNK:BSA conjugate [14] = target: T1, cSNK:BSA conjugate; assay: BLI 2:1 fit, column kon; 100 nM row
Description: as §1

cSNK:BSA conjugate [15] = target: T1, cSNK:BSA conjugate; assay: BLI 2:1 fit, column KD2; 12.5 nM row
Description: as §1

cSNK:BSA conjugate [16] = target: T1, cSNK:BSA conjugate; assay: BLI 2:1 fit, column KD2; 6.25 nM row
Description: as §1

cSNK:BSA conjugate [17] = target: T1, cSNK:BSA conjugate; assay: BLI 2:1 fit, column kdis2; 25 nM row
Description: as §1

cSNK:BSA conjugate [18] = target: T1, cSNK:BSA conjugate; assay: BLI 2:1 fit, column kdis2; 50 nM row
Description: as §1

cSNK:BSA conjugate [19] = target: T1, cSNK:BSA conjugate; assay: BLI 2:1 fit, column kdis; 100 nM row
Description: as §1

cSNK:BSA conjugate [20] = target: T1, cSNK:BSA conjugate; assay: BLI 2:1 fit, column kon2; 100 nM row
Description: as §1

cSNK:BSA conjugate [21] = target: T1, cSNK:BSA conjugate; assay: BLI 2:1 fit, column kon; 12.5 nM row
Description: as §1

cSNK:BSA conjugate [22] = target: T1, cSNK:BSA conjugate; assay: BLI 2:1 fit, column kon; 6.25 nM row
Description: as §1

cSNK:BSA conjugate [23] = target: T1, cSNK:BSA conjugate; assay: BLI 2:1 fit, column kdis2; 100 nM row
Description: as §1

cSNK:BSA conjugate [24] = target: T1, cSNK:BSA conjugate; assay: BLI 2:1 fit, column kdis; 12.5 nM row
Description: as §1

cSNK:BSA conjugate [25] = target: T1, cSNK:BSA conjugate; assay: BLI 2:1 fit, column kdis; 6.25 nM row
Description: as §1

cSNK:BSA conjugate [26] = target: T1, cSNK:BSA conjugate; assay: BLI 2:1 fit, column kon2; 12.5 nM row
Description: as §1

cSNK:BSA conjugate [27] = target: T1, cSNK:BSA conjugate; assay: BLI 2:1 fit, column kon2; 6.25 nM row
Description: as §1

cSNK:BSA conjugate [28] = target: T1, cSNK:BSA conjugate; assay: BLI 2:1 fit, column kdis2; 12.5 nM row
Description: as §1

cSNK:BSA conjugate [29] = target: T1, cSNK:BSA conjugate; assay: BLI 2:1 fit, column kdis2; 6.25 nM row
Description: as §1

cSNK:BSA conjugate [30] = target: T1, cSNK:BSA conjugate; assay: BLI (Octet RED96), 2:1 kinetics, KD1, summary table
Description: as §1
(§2) Table 7 summarizes the affinity constants of humanized 5E3 IgG1, IgG2 and IgG4 constructs. The KD ranges were determined using 2:1 kinetics of binding of analyte (BSA-cSNK) in solution to two different binding sites on the surface (immobilized bivalent, monospecific 5E3) in comparison to murine 5E3 using biolayer interferometry (Octet RED96).

cSNK:BSA conjugate [31] = target: T1, cSNK:BSA conjugate; assay: BLI (Octet RED96), 2:1 kinetics, KD2, summary table
Description: as §1, §2

cSNK:BSA conjugate [32] = target: T1, cSNK:BSA conjugate; assay: BLI 2:1 fit, column KD; 100 nM row; 100 nM row, column KD (site with kon 4.16E+06, kdis 3.38E-02)
Description: as §1

T1 sequence (P02769 25-607 limits assumed): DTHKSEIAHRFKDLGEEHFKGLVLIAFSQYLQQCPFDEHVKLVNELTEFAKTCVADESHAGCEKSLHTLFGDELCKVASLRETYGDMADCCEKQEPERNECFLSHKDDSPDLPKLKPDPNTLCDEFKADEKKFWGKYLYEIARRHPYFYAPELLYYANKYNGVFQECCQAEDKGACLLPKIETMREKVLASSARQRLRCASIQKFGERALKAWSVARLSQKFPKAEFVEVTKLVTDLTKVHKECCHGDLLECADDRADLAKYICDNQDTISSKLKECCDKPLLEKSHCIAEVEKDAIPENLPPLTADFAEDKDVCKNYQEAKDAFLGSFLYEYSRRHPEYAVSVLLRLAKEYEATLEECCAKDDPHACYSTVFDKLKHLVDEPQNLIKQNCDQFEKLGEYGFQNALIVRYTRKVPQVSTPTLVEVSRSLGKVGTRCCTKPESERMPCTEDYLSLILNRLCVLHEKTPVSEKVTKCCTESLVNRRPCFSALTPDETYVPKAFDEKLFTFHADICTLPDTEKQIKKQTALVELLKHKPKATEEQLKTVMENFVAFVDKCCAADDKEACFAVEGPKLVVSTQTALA

B1: rehu5E3-IgG2 (antibody, V domains shown)
VH: QVQLQQSGPEVVKPGASVKISCKASGYIFTSYYIQWVIHAPGQGLEWIGWIYPGNVNTKYNEKFKGKATLTADKSSSTAYMELSSLRSEDSAVYFCARMDYEAHYWGQGTLVTVSS
VL: DIQMTQSPSSLSASLGDRVTLTCRASQEISGYLTWLQQKPEKAIKRLIYAASTLDSGVPKRFSGSRSGSDYTLTISSLQPEDFADYNCLQYANYPRTFGGGTKLEIK
notes: human IgG2/kappa
Kd (cSNK:BSA conjugate [1]): 1.28 nM
Kd (cSNK:BSA conjugate [2]): 8.14 nM
Kd (cSNK:BSA conjugate [3]): 8.14 nM
Kd (cSNK:BSA conjugate [4]): 1.28 nM
kon (cSNK:BSA conjugate [5]): 698000 M⁻¹ s⁻¹
kon (cSNK:BSA conjugate [6]): 4.16e+06 M⁻¹ s⁻¹
Kd (cSNK:BSA conjugate [7]): 1.28 nM
Kd (cSNK:BSA conjugate [8]): 1.28 nM
Kd (cSNK:BSA conjugate [9]): 1.28 nM
koff (cSNK:BSA conjugate [10]): 0.00089 s⁻¹
koff (cSNK:BSA conjugate [11]): 0.0338 s⁻¹
kon (cSNK:BSA conjugate [12]): 4.16e+06 M⁻¹ s⁻¹
kon (cSNK:BSA conjugate [13]): 698000 M⁻¹ s⁻¹
kon (cSNK:BSA conjugate [14]): 4.16e+06 M⁻¹ s⁻¹
Kd (cSNK:BSA conjugate [15]): 8.14 nM
Kd (cSNK:BSA conjugate [16]): 8.14 nM
koff (cSNK:BSA conjugate [17]): 0.0338 s⁻¹
koff (cSNK:BSA conjugate [18]): 0.00089 s⁻¹
koff (cSNK:BSA conjugate [19]): 0.0338 s⁻¹
kon (cSNK:BSA conjugate [20]): 698000 M⁻¹ s⁻¹
kon (cSNK:BSA conjugate [21]): 698000 M⁻¹ s⁻¹
kon (cSNK:BSA conjugate [22]): 698000 M⁻¹ s⁻¹
koff (cSNK:BSA conjugate [23]): 0.00089 s⁻¹
koff (cSNK:BSA conjugate [24]): 0.00089 s⁻¹
koff (cSNK:BSA conjugate [25]): 0.00089 s⁻¹
kon (cSNK:BSA conjugate [26]): 4.16e+06 M⁻¹ s⁻¹
kon (cSNK:BSA conjugate [27]): 4.16e+06 M⁻¹ s⁻¹
koff (cSNK:BSA conjugate [28]): 0.0338 s⁻¹
koff (cSNK:BSA conjugate [29]): 0.0338 s⁻¹
Kd (cSNK:BSA conjugate [30]): 8.14 nM
Kd (cSNK:BSA conjugate [31]): 1.28 nM
Kd (cSNK:BSA conjugate [32]): 8.14 nM
